Results as given in publication PMC6721605.

Target: dynamin-like protein B (dlpB) of Dictyostelium discoideum (Dictyostelium discoideum (endogenous in AX2)) (UniProt Q54MH8)
Experiment: co-IP; anti-dlpB antibodies on Dynabeads protein G; lysate of partially synchronized (mitotic) wild-type cells (10 °C 16 h, then 10 µM thiabendazole 3.5 h); lysis buffer 150 mM NaCl, 5 mM EGTA, 5 mM EDTA, 1% Triton X-100, 20 mM Tris-HCl pH 7.5; western blot with anti-dlpA and anti-dlpB

Chain of UniProt Q54MH8 (Q54MH8 whole entry): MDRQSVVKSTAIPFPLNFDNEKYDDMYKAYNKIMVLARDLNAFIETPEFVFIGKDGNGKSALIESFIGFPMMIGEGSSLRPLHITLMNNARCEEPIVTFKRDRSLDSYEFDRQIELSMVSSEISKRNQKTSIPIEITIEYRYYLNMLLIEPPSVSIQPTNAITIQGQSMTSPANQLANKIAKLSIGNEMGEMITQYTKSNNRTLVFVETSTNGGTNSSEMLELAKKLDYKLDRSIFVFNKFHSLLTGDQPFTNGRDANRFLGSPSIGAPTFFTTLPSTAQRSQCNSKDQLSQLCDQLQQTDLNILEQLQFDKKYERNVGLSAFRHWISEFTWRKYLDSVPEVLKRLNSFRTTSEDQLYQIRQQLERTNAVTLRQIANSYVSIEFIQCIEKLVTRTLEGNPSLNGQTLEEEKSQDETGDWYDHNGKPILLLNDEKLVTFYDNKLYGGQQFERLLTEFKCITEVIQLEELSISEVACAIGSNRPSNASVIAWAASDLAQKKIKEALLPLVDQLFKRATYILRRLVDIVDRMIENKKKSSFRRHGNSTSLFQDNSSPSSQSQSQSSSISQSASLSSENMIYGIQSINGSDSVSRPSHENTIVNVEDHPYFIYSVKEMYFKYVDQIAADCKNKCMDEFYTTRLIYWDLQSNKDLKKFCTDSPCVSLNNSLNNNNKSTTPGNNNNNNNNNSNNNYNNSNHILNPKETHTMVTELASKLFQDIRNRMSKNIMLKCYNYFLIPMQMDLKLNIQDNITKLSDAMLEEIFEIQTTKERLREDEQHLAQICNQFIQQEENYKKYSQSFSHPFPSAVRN

B1: dynamin-like protein A (dlpA) of Dictyostelium discoideum (natural protein)
chain: MSVFKKKDKSDDKKKKHDEETPQGTFQPASQSTSNTNLNSLASSVNNGASVGSTNGSTPNNSNGSTPTYNHNNSAEELEKQKKEEDEKRKKSELEAAAAVVAKKKEDEEKQRKEQVELERKRRDEEIRRTNAAAANAANKELNEQVEISSLEQMGKLDPSSTIHDMFSFFPNEVYNSYEKLQYFSRDLNTAVSHPEIVFVGPRSSGKSSLIEAFIGRALNIVGGGNIVGVGGSNANGCSKRVLYLQFTNNIDFEVPKVTIKKDNTIKEFDHDIIVSIEQLNENLAKRNQLTNDYIEEPIYVSIESRTTLNLTLIDSPGLLFDQSQAESNKIESIVSSLLRPSHRLIIAVESCSQDWKSMSMGQYLKKIDPELSRSTFVFTKFHHTVRGFSSTRDINKYLSGTVPDIKGFFVTLPNHQVRASYSEANRFQEKIYQAHKRDMHALEQLQYDKRYERTIGVAPLRRYILNIVWKSYQDTIPRILKHLRSKRQTAEATLNELQKQSSSLDSTKLRSIASNYTVTFLQITEKLLSGTSEGNPSANGQTLDEEKSQQGDCGEWVDAYKEAIYIDPEEWNIPYWSSKLYGGQQLERLMAEFKAVCDNSKISEVKMDDIATASGINKLNNIPNYAWAASDLTSLISRDTFVPLIEQLCERAMYIMKRLTDIADKVIDSRRKSRCIGSSPFGGNGLNNINSGGNNGININDRLSNTDMDSLDQYPFFTHHVKNLYYDFVHRAAKGCKEKCMDEFYSSRTIYWELTEHPDSSLPSIRNDHHETKTAVCQLATKLFDSIRQRITKNVLLKLYNFFLVPMQTDLWNEIQAQITCLSNEQLEQLFEVQATREQLKQEEKKQQQILEKYSQIDEQFLKAASLFCRPLSNPTPSA
- amount of dlpA in the IP fraction as percent of that in supernatant: 58%
